Laboratory results: paper PMC3142331

Biological target: Mce1-(227–567) protein, RNA guanylyltransferase (GTase) domain of mouse mammalian capping enzyme (mouse) (UniProt O55236)
Assay: fluorescence polarisation

Chain of Mce1-(227–567) protein, RNA guanylyltransferase (GTase) domain of mouse mammalian capping enzyme (mouse) (O55236 227-567): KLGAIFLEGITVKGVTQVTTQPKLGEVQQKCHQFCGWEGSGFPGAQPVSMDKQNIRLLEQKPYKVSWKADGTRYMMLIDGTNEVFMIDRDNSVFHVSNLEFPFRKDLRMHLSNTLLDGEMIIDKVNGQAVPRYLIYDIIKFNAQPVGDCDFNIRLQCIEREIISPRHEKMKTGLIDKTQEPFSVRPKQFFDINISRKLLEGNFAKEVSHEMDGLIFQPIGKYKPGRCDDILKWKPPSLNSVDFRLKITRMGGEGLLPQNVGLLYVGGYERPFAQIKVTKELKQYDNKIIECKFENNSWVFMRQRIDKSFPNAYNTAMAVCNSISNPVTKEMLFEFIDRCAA

Substance: unlabeled 11 aa phosphorylated CTD peptide (S2P3T4S5PP6S7Y1S2PP3T4S5)
- Ki: 160 µM
